Patent US6773704B1, “Methods of treating vascular disease associated with cystatin C deficiency” (The Brigham and Women's Hospital, Inc., priority 1999, dated 2004)
“Also recorded” adds a separate entry of the source.

B1: recombinant cystatin C: 13 kDa extracellular inhibitor of cysteine proteases, human sequence SEQ ID NO:1; native or recombinant (protein, UniProt P01034 27-146, looked up)
Cystatin-C: SSPGKPPRLVGGPMDASVEEEGVRRALDFAVGEYNKASNDMYHSRALQVVRARKQIVAGVNYFLDVELGRTTCTKTQPNLDNCPFHDQPHLKRKAFCSFQIYAVPWQGTMTLSKSTCQDA
B2: IFN-γ: pro-inflammatory cytokine used at 500 units/ml to stimulate smooth muscle cell cathepsin S-dependent elastase activity (protein, UniProt P01579 24-161, looked up)
Interferon gamma: QDPYVKEAENLKKYFNAGHSDVADNGTLFLGILKNWKEESDRKIMQSQIVSFYFKLFKNFKDDQSIQKSVETIKEDMNVKFFNSNKKKRDDFEKLTNYSVTDLNVQRKAIHELIQVMAELSPAAKTGKRKRSQMLFRG

Tests used:
Type in all cases: cell-based, human
[1] = test system: cathepsin S and cystatin C mRNA in smooth muscle cells; test: Northern blot analysis of smooth muscle cell RNA
Method: Total RNAs were isolated from control and IFN-γ-stimulated smooth muscle cells for Northern blot analysis. Northern blot analysis was performed as follows: After INF-γ and TGF-β1 treatments, 1.5×10^7 smooth muscle cells were lysed in 5 ml of guanidium. isothiocyanate (GTC) lysis buffer for RNA preparation as described (Sukhova et al., 102 J. Clin. Invest. 576-83 (1998)). Twenty micrograms of total RNA from smooth muscle cells were separated on 1.2% agarose gel and blotted on Zeta-Probe GT blotting membrane (Bio-Rad Laboratories, Inc.). A human cystatin C probe was generated by polymerase chain reaction using cystatin C cDNA. The 500 bp cystatin C cDNA fragment and cathepsin S cDNA probe (Sukhova et al., 102 J. Clin. Invest 576-83 (1998)) were labeled with [^32P]-dCTP and purified with NENSORB 20 column (NEN Life Science Products, Inc.) before hybridizing as previously described (Sukhova et al., 102 J. Clin. Invest. 576-83 (1998)).

[2] = test system: IFN-γ-stimulated smooth muscle cells elastase activity; test: Elastase assay: smooth muscle cells co-cultured with insoluble [3H]-elastin
From the text: FIG. 2 is a bar graph showing that smooth muscle cells elastase activity is inhibited by recombinant cystatin C. Interferon-γ stimulated smooth muscle cells were co-cultured in serum-free medium with insoluble elastin in the presence of increasing concentrations of cystatin C as indicated in the panel. After 72 hrs, media were collected and soluble radioactivity measured as an index of elastin degradation.
FIG. 3 is a graph showing that TGF-β1 blocks smooth muscle cells elastase activity. Interferon-stimulated smooth muscle cells were co-cultured with elastin as above in the presence of increasing amounts of TGF-β1 and elastin degradation quantified after 72 hrs.
Prior studies documenting the capacity of macrophages to use cysteine proteases to degrade elastin found macrophage elastolytic activity to be insensitive to the presence of pericellular serum protease inhibitors (Reedy et al., 92 Porch. Natl. Acad. Sci. 3849-853 (1995); Chapman et al., 74 J. Clin. Invest. 1693-700 (1984)). Given the marked reduction of cystatin C in atherosclerotic and aneurysmal lesions and the clinical correlation in EXAMPLES 1-3, the influence of cystatin C on the elastolytic activity of cultured vascular smooth muscle cells was examined. Vascular smooth muscle cells were stimulated with IFN-γ (500 units/ml) for 24 hours to augment cathepsin S-dependent elastase activity (Sukhova et al., 102 J. Clin. Invest. 576-83 (1998)). In co-cultures with insoluble elastin, the addition of as little as 10 ng/ml of recombinant cystatin C inhibits elastin degradation (FIG. 2). Higher concentrations of cystatin C block >75% of the IFNγ-induced activity, confirming that smooth muscle cells elastase activity depends largely on elastolytic cysteine proteases.
The elastase assay was performed as follows: Smooth muscle cells were cultured on 24-well plates in 10% FBS DMEM until 100% confluence (5×10^5 cells/well). […] The digested elastin radioactivity was counted using 200 μl of medium and the data presented as μg elastin degraded per 10^6 cells in 24 hours.

[3] = test system: cathepsin S and cystatin C protein/secretion by smooth muscle cells; test: Immunoblot analysis of smooth muscle cell lysates and culture medium; conditions: for cystatin C secretion (level of secreted cystatin C): cultured vascular smooth muscle cells, culture medium
Method: Human sapheneous vein smooth muscle cells were cultured in Swell plates in Dulbecco's Modification of Eagle's Medium (DMEM) containing 10% fetal bovine serum (FBS) until confluent. […] Culture medium was then collected and centrifuged at 16000×g for 10 min. Proteins were precipitated with 20% trichloroacetic acid on ice for 30 min. followed by repeat centrifugation. The protein pellet was briefly washed with 100% ethanol and resuspended in electrophoresis sample buffer smooth muscle cells were lysed directly into sample buffer after two washes with 1×PBS. Both cell lysates and proteins from culture medium were separated on SDS-PAGE for immunoblot analysis with antibodies against human cathepsin S and cystatin C as described above. All Western blots were developed with Western Blot Chemiluminescence Reagent (NEN Life Science Products, Inc., Boston, Mass., USA).

[4] = smooth muscle cells, TGF-β1 5 ng/ml
[5] = smooth muscle cells stimulated with IFN-γ (500 units/ml)

Molecule | level of cathepsin S mRNA [1, 4] | level of cystatin C mRNA [1, 4] | concentration that almost completely blocks elastase activity ([2]; IFN-γ-stimulated smooth muscle cells, elastin degradation after 72 hrs) | cystatin C secretion (level of secreted cystatin C) [3] | time after exposure at which cystatin C biosynthesis increases ([3]; smooth muscle cells exposed to TGF-β1) | level of cathepsin S protein [3, 4] | concentration that inhibits elastin degradation (elastolytic activity) ([2]; IFN-γ (500 units/ml) stimulated vascular smooth muscle cells co-cultured with insoluble elastin, 72 hrs) | block of IFNγ-induced elastase activity ([2]; higher concentrations of cystatin C (tested 0-500 ng/ml), IFN-γ-stimulated smooth muscle cells) | cathepsin S mRNA [1, 5] | secretion of active cathepsin S [3, 5]
TGF-β1: transforming growth factor-β1, native or recombinant cytokine (SEQ ID NO:2); induces cystatin C secretion | does not change | does not change | ≤ 1 ng/mL | markedly increases; also recorded: stimulates; also recorded: potent inducer | one | does not change |  |  |  | 
B1 |  |  |  |  |  |  | ≤ 10 ng/mL | > 75% |  | 
B2 |  |  |  | no effect |  |  |  |  | induces | induces
